Measurements: article PMC5554458 (Cellular signalling, 2017)

Tests used:
Test in all cases: inhibition of enzyme activity
PDE6C-Y323N = PDE6C-Y323N (human, UniProt P51160 1-858, Y323N)
PDE6C-H262N = PDE6C-H262N (human, UniProt P51160 1-858, H262N)
PDE6C-L858V = PDE6C-L858V (human, UniProt P51160 1-858, L858V, farnesyl on the Cys of the C-terminal CAAX box (farnesylated PDE6C-L858V))
Chain of PDE6C-L858V (P51160 whole entry L858V): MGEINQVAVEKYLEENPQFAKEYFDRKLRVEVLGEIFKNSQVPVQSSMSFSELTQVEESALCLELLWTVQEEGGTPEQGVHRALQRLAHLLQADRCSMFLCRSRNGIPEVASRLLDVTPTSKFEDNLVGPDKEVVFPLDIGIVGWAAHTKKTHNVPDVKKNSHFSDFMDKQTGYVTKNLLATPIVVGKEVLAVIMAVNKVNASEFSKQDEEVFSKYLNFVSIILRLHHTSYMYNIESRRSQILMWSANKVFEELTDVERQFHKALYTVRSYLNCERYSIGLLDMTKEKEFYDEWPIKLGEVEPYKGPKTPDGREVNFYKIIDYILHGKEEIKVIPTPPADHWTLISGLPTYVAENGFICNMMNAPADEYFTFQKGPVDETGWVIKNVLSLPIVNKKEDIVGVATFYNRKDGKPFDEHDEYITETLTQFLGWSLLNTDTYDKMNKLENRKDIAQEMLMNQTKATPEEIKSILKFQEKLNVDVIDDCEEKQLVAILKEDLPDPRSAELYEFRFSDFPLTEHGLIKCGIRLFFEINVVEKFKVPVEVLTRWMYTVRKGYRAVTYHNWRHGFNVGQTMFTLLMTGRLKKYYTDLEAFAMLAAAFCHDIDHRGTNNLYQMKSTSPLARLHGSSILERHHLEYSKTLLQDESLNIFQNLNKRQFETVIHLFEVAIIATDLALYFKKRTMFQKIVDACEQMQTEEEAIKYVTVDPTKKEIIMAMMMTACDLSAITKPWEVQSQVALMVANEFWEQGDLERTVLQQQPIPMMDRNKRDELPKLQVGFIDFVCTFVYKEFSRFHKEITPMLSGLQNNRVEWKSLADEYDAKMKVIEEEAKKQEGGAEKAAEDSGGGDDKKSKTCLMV

Chain of PDE6C-Y323N (P51160 whole entry Y323N): as the sequence (P51160 whole entry L858V) above, with Y323N, V858L counted along it
Chain of PDE6C-H262N (P51160 whole entry H262N): as the sequence (P51160 whole entry L858V) above, with H262N, V858L counted along it

B1: bovine rod Pγ (natural protein, UniProt P04972 1-87, looked up)
chain: MNLEPPKAEIRSATRVMGGPVTPRKGPPKFKQRQTRQFKSKPPKKGVQGFGDDIPGMEGLGTDITVICPWEAFNHLELHELAQYGII
PDE6C-Y323N
  Ki: 0.176 nM
PDE6C-H262N
  Ki: 0.222 nM
PDE6C-L858V
  Ki: 0.114 nM
